{"source": "paper PMC3080791", "molecular_target": "α-dystroglycan isolated from skeletal muscle (UniProt Q28685)", "sequence (Q28685 30-653)": "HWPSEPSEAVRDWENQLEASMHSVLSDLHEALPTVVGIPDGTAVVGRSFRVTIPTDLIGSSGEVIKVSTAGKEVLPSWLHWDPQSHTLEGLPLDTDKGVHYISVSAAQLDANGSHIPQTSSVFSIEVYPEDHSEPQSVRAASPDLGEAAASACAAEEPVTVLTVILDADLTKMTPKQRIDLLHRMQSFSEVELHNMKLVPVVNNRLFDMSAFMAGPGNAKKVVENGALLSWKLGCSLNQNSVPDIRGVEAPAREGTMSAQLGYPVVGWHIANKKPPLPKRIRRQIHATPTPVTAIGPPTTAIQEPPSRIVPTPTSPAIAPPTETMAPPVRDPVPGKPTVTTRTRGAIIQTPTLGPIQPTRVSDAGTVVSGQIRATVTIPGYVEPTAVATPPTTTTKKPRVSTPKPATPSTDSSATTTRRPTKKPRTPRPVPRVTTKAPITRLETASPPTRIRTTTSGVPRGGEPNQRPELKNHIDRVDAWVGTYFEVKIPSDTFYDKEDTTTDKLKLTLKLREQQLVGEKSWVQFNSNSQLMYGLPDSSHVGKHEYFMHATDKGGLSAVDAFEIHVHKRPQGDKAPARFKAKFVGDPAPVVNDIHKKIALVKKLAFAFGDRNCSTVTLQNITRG", "experiment": "ELISA"}
{"substance": "LCMV WE54 envelope glycoprotein displayed on FIV lentiviral vector particles (FIV-WE54) (complex)", "values": [{"measurement": "OD relative to wild-type LCMV WE54", "value": 0.33}]}
